Data as given in patent WO2022059800A1 (dated 2022).

Molecular target: T1, recombinant Tie2-Fc fusion protein (R&D systems) (UniProt Q02763 23-745)
T1 construct: not shown: Fc part
Experiment: Biacore 8K, Ang2 amine-coupled, Tie2-Fc as analyte, single-cycle kinetics

T1 sequence (Q02763 23-745 limits assumed): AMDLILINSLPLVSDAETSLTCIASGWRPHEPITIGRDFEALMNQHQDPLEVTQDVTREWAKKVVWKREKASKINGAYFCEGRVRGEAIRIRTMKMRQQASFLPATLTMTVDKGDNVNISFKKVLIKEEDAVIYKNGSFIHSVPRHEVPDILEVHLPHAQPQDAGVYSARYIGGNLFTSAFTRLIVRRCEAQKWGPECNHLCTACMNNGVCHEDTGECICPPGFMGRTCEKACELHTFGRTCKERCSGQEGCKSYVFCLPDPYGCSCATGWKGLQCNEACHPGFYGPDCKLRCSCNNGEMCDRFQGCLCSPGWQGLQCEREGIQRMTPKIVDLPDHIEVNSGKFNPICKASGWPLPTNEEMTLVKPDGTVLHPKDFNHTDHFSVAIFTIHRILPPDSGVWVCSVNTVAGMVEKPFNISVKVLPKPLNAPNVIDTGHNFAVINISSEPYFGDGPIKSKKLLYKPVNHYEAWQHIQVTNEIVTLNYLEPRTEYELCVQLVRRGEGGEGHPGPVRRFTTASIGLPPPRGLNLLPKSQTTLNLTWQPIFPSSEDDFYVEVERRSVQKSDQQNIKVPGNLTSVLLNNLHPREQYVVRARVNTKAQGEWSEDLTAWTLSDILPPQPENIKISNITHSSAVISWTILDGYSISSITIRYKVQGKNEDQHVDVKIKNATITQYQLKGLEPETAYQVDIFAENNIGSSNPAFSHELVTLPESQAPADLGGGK

- Kd: 4.26 nM
B1: human recombinant Ang2 protein (ligand, UniProt O15123 19-496, looked up)
chain: YNNFRKSMDSIGKKQYQVQHGSCSYTFLLPEMDNCRSSSSPYVSNAVQRDAPLEYDDSVQRLQVLENIMENNTQWLMKLENYIQDNMKKEMVEIQQNAVQNQTAVMIEIGTNLLNQTAEQTRKLTDVEAQVLNQTTRLELQLLEHSLSTNKLEKQILDQTSEINKLQDKNSFLEKKVLAMEDKHIIQLQSIKEEKDQLQVLVSKQNSIIEELEKKIVTATVNNSVLQKQQHDLMETVNNLLTMMSTSNSAKDPTVAKEEQISFRDCAEVFKSGHTTNGIYTLTFPNSTEEIKAYCDMEAGGGGWTIIQRREDGSVDFQRTWKEYKVGFGNPSGEYWLGNEFVSQLTNQQRYVLKIHLKDWEGNEAYSLYEHFYLSSEELNYRIHLKGLTGTAGKISSISQPGNDFSTKDGDNDKCICKCSQMLTGGWWFDACGPSNLNGMYYPQRQNTNKFNGIKWYYWKGSGYSLKATTMMIRPADF
notes: also called rhAng2; angiopoietin-2
